# The Human Domainome abundance scans (Beltran et al. 2025)
# ± gives the uncertainty stated by the source.
# B1: 3'-5' exoribonuclease 1, residues 65 to 114; numbered along this chain, Q8IV48 (parent)
# chain: VYKEIAITNGCINRMSKEELRAKLSEFKLETRGVKDVLKKRLKNYYKKQK
# B2: Ankyrin-3, residues 4094 to 4171; numbered along this chain, Q12955 (parent)
# chain: MAIVADHLGLSWTELARELNFSVDEINQIRVENPNSLISQSFMLLKKWVTRDGKNATTDALTSVLTKINRIDIVTLLE
# Variants of: B1
# Experiment: abundance fitness (aPCA) (normalised: wild type 0, dead -1); higher = more abundant; growth selection in yeast, the domain comes from the species named
# Conditions: Homo sapiens
row,Variant,abundance fitness
1,KYKEIAITNGCINRMSKEELRAKLSEFKLETRGVKDVLKKRLKNYYKKQK,-0.043 ± 0.43
2,IYKEIAITNGCINRMSKEELRAKLSEFKLETRGVKDVLKKRLKNYYKKQK,-0.025 ± 0.034
3,TYKEIAITNGCINRMSKEELRAKLSEFKLETRGVKDVLKKRLKNYYKKQK,-0.122 ± 0.12
4,GYKEIAITNGCINRMSKEELRAKLSEFKLETRGVKDVLKKRLKNYYKKQK,0.002 ± 0.044
5,SYKEIAITNGCINRMSKEELRAKLSEFKLETRGVKDVLKKRLKNYYKKQK,-0.038 ± 0.079
6,CYKEIAITNGCINRMSKEELRAKLSEFKLETRGVKDVLKKRLKNYYKKQK,-0.072 ± 0.071
7,WYKEIAITNGCINRMSKEELRAKLSEFKLETRGVKDVLKKRLKNYYKKQK,-0.102 ± 0.074
8,RYKEIAITNGCINRMSKEELRAKLSEFKLETRGVKDVLKKRLKNYYKKQK,-0.37 ± 0.093
9,LYKEIAITNGCINRMSKEELRAKLSEFKLETRGVKDVLKKRLKNYYKKQK,-0.047 ± 0.061

# Variants of: B2
# Experiment: as above
# Conditions: Homo sapiens
row,Variant,abundance fitness
1,MAIVADHLGLSWTELARELNFSVDEINQIRVENPNSLISQSFMLLKKWVTRDGKNATTDALTSVLTKINRIDIVTVLE,0.026 ± 0.058
2,MAIVADHLGLSWTELARELNFSVDEINQIRVENPNSLISQSFMLLKKWVTRDGKNATTDALTSVLTKINRIDIVTRLE,0.045 ± 0.039
3,MAIVADHLGLSWTELARELNFSVDEINQIRVENPNSLISQSFMLLKKWVTRDGKNATTDALTSVLTKINRIDIVTTLE,-0.197 ± 0.083
4,MAIVADHLGLSWTELARELNFSVDEINQIRVENPNSLISQSFMLLKKWVTRDGKNATTDALTSVLTKINRIDIVTYLE,-0.546 ± 0.33
5,MAIVADHLGLSWTELARELNFSVDEINQIRVENPNSLISQSFMLLKKWVTRDGKNATTDALTSVLTKINRIDIVTSLE,-0.175 ± 0.06
6,MAIVADHLGLSWTELARELNFSVDEINQIRVENPNSLISQSFMLLKKWVTRDGKNATTDALTSVLTKINRIDIVTWLE,-0.489 ± 0.12
7,MAIVADHLGLSWTELARELNFSVDEINQIRVENPNSLISQSFMLLKKWVTRDGKNATTDALTSVLTKINRIDIVTLCE,-0.164 ± 0.12
8,MAIVADHLGLSWTELARELNFSVDEINQIRVENPNSLISQSFMLLKKWVTRDGKNATTDALTSVLTKINRIDIVTLQE,-0.805 ± 0.23
9,MAIVADHLGLSWTELARELNFSVDEINQIRVENPNSLISQSFMLLKKWVTRDGKNATTDALTSVLTKINRIDIVTLPE,-0.768 ± 0.14
10,MAIVADHLGLSWTELARELNFSVDEINQIRVENPNSLISQSFMLLKKWVTRDGKNATTDALTSVLTKINRIDIVTLGE,-0.68 ± 0.11
11,MAIVADHLGLSWTELARELNFSVDEINQIRVENPNSLISQSFMLLKKWVTRDGKNATTDALTSVLTKINRIDIVTLKE,-0.602 ± 0.22
12,MAIVADHLGLSWTELARELNFSVDEINQIRVENPNSLISQSFMLLKKWVTRDGKNATTDALTSVLTKINRIDIVTLTE,-0.434 ± 0.097
13,MAIVADHLGLSWTELARELNFSVDEINQIRVENPNSLISQSFMLLKKWVTRDGKNATTDALTSVLTKINRIDIVTLRE,-0.93 ± 0.13
14,MAIVADHLGLSWTELARELNFSVDEINQIRVENPNSLISQSFMLLKKWVTRDGKNATTDALTSVLTKINRIDIVTLVE,-0.139 ± 0.048
15,MAIVADHLGLSWTELARELNFSVDEINQIRVENPNSLISQSFMLLKKWVTRDGKNATTDALTSVLTKINRIDIVTLIE,-0.293 ± 0.22
16,MAIVADHLGLSWTELARELNFSVDEINQIRVENPNSLISQSFMLLKKWVTRDGKNATTDALTSVLTKINRIDIVTLSE,-0.526 ± 0.088
17,MAIVADHLGLSWTELARELNFSVDEINQIRVENPNSLISQSFMLLKKWVTRDGKNATTDALTSVLTKINRIDIVTLME,-0.022 ± 0.12
18,MAIVADHLGLSWTELARELNFSVDEINQIRVENPNSLISQSFMLLKKWVTRDGKNATTDALTSVLTKINRIDIVTLWE,-0.518 ± 0.077

row,Variant,abundance fitness
1,MAIVADHLGLSWTELARELNFSVDEINQIRVENPNSLISQSFMLLKKWVTRDGKNATTDALTSVLTKINRIDIVTLHE,-0.742 ± 0.23
2,MAIVADHLGLSWTELARELNFSVDEINQIRVENPNSLISQSFMLLKKWVTRDGKNATTDALTSVLTKINRIDIVTLLQ,-0.397 ± 0.2
3,MAIVADHLGLSWTELARELNFSVDEINQIRVENPNSLISQSFMLLKKWVTRDGKNATTDALTSVLTKINRIDIVTLLV,-0.206 ± 0.075
4,MAIVADHLGLSWTELARELNFSVDEINQIRVENPNSLISQSFMLLKKWVTRDGKNATTDALTSVLTKINRIDIVTLLW,-0.649 ± 0.36
5,MAIVADHLGLSWTELARELNFSVDEINQIRVENPNSLISQSFMLLKKWVTRDGKNATTDALTSVLTKINRIDIVTLLK,-0.025 ± 0.085
6,MAIVADHLGLSWTELARELNFSVDEINQIRVENPNSLISQSFMLLKKWVTRDGKNATTDALTSVLTKINRIDIVTLLH,-0.026 ± 0.085
7,MAIVADHLGLSWTELARELNFSVDEINQIRVENPNSLISQSFMLLKKWVTRDGKNATTDALTSVLTKINRIDIVTLLS,-0.089 ± 0.065
8,MAIVADHLGLSWTELARELNFSVDEINQIRVENPNSLISQSFMLLKKWVTRDGKNATTDALTSVLTKINRIDIVTLLC,-0.275 ± 0.17
9,MAIVADHLGLSWTELARELNFSVDEINQIRVENPNSLISQSFMLLKKWVTRDGKNATTDALTSVLTKINRIDIVTLLN,-0.014 ± 0.09
10,MAIVADHLGLSWTELARELNFSVDEINQIRVENPNSLISQSFMLLKKWVTRDGKNATTDALTSVLTKINRIDIVTLLM,-0.211 ± 0.11
11,MAIVADHLGLSWTELARELNFSVDEINQIRVENPNSLISQSFMLLKKWVTRDGKNATTDALTSVLTKINRIDIVTLLY,-0.159 ± 0.14
12,MAIVADHLGLSWTELARELNFSVDEINQIRVENPNSLISQSFMLLKKWVTRDGKNATTDALTSVLTKINRIDIVTLLT,-0.063 ± 0.032
13,MAIVADHLGLSWTELARELNFSVDEINQIRVENPNSLISQSFMLLKKWVTRDGKNATTDALTSVLTKINRIDIVTLLL,-0.326 ± 0.088
14,MAIVADHLGLSWTELARELNFSVDEINQIRVENPNSLISQSFMLLKKWVTRDGKNATTDALTSVLTKINRIDIVTLLD,-0.001 ± 0.072
15,MAIVADHLGLSWTELARELNFSVDEINQIRVENPNSLISQSFMLLKKWVTRDGKNATTDALTSVLTKINRIDIVTLLF,-0.13 ± 0.1
16,MAIVADHLGLSWTELARELNFSVDEINQIRVENPNSLISQSFMLLKKWVTRDGKNATTDALTSVLTKINRIDIVTLLI,-0.219 ± 0.041
17,MAIVADHLGLSWTELARELNFSVDEINQIRVENPNSLISQSFMLLKKWVTRDGKNATTDALTSVLTKINRIDIVTLLG,0.077 ± 0.13
